Reference: article PMC10085679, “Filament assembly underpins the double-stranded DNA specificity of AIM2-like receptors”

Assays:
AIM2HIN [1] = target: T1, AIM2HIN (Homo sapiens, UniProt O14862 144-343); test: fluorescence anisotropy; 160 mM KCl (60 mM KCl for IFI16HinAB); buffer, pH and temperature not given in the available text; conditions: protein: recombinant
T1 sequence: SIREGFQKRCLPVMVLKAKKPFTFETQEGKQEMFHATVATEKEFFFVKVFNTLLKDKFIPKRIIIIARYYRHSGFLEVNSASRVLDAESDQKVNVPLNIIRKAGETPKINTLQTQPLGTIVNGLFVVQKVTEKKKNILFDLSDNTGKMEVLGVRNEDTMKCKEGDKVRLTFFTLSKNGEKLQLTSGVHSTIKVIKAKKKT

IFI16FL [2] = target: T2, IFI16FL (Homo sapiens, UniProt Q16666-2 1-729); test: as above; conditions: protein: recombinant; tags: C-terminal His6
T2 sequence (Q16666 other isoform, or with tags, fused parts or gaps): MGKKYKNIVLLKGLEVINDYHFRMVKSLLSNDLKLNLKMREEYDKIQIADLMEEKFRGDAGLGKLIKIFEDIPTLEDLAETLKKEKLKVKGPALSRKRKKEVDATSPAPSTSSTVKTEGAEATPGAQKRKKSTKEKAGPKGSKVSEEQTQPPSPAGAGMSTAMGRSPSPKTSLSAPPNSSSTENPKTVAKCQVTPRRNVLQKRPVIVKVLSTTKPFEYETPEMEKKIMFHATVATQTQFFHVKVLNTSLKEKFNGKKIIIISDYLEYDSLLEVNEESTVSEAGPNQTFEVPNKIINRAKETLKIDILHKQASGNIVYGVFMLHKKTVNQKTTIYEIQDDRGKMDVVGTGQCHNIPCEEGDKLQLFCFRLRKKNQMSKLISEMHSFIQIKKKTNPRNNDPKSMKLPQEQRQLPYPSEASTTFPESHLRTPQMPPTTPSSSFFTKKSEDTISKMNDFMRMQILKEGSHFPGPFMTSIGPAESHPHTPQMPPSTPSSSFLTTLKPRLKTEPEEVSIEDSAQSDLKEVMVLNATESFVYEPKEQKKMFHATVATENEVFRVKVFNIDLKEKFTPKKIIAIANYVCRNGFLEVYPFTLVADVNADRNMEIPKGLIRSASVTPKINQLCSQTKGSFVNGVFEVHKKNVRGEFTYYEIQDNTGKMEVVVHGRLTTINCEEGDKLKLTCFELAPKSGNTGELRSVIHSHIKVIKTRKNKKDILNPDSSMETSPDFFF

IFI16HinAB [3] = target: T3, IFI16HinAB (Homo sapiens, UniProt Q16666-2 159-729); test: as above; conditions: protein: recombinant
T3 sequence (Q16666 other isoform, or with tags, fused parts or gaps): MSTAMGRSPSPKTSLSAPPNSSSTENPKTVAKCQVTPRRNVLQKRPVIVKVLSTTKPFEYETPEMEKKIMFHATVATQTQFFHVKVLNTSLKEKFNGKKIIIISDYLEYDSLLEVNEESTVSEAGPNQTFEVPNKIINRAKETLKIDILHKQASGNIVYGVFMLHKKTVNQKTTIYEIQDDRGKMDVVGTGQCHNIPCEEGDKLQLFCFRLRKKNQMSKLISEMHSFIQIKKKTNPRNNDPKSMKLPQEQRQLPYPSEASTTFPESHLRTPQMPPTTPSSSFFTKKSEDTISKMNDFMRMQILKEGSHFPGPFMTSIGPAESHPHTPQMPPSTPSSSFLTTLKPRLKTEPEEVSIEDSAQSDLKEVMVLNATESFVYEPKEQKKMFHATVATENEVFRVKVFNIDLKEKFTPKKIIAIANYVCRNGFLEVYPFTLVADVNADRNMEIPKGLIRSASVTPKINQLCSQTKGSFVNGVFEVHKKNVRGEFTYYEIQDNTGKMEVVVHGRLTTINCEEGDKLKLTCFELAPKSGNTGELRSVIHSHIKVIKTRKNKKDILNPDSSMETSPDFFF

AIM2FL [4] = target: T4, AIM2FL (Homo sapiens, UniProt O14862 1-343); test: as above; conditions: protein: recombinant
T4 sequence: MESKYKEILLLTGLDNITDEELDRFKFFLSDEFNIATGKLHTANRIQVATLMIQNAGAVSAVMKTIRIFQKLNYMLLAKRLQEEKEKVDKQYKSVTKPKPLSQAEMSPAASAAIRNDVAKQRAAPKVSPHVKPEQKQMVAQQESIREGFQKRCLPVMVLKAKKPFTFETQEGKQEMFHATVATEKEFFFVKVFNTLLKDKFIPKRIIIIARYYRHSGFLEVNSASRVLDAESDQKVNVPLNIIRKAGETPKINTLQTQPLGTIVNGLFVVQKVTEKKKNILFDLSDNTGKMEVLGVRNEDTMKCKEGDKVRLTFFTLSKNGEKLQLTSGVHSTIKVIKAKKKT

IFI16FL [5] = target: T2, IFI16FL; test: competition; last row of Table S10, presumably against 60-bp FAM-dsDNA; 160 mM KCl; 60 mM KCl for IFI16HinAB; FAM probe 3-6 nM (FA) or 20 nM (EMSA); binding buffer pH and temperature not in the material; conditions: protein: recombinant; tags: C-terminal His6
AIM2HIN [6] = target: T1, AIM2HIN; test: competition fluorescence anisotropy; unlabelled competitor against 6 nM 24-bp FAM-dsDNA, 625 nM protein; 160 mM KCl (60 mM KCl for IFI16HinAB); buffer, pH and temperature not given in the available text; conditions: protein: recombinant
AIM2HIN [7] = target: T1, AIM2HIN; test: competition fluorescence anisotropy; unlabelled competitor against 6 nM 60-bp FAM-dsDNA, 400 nM protein; 160 mM KCl (60 mM KCl for IFI16HinAB); buffer, pH and temperature not given in the available text; conditions: protein: recombinant
IFI16HinAB [8] = target: T3, IFI16HinAB; test: as above; conditions: protein: recombinant
IFI16HinAB [9] = target: T3, IFI16HinAB; test: competition fluorescence anisotropy; unlabelled competitor against 6 nM 24-bp FAM-dsDNA, 1000 nM protein; 160 mM KCl (60 mM KCl for IFI16HinAB); buffer, pH and temperature not given in the available text; conditions: protein: recombinant
IFI16FL [10] = target: T2, IFI16FL; test: competition fluorescence anisotropy; unlabelled competitor against 6 nM 24-bp FAM-dsDNA, 500 nM protein; 160 mM KCl (60 mM KCl for IFI16HinAB); buffer, pH and temperature not given in the available text; conditions: protein: recombinant; tags: C-terminal His6
AIM2FL [11] = target: T4, AIM2FL; test: fluorescence anisotropy; 160 mM KCl; 60 mM KCl for IFI16HinAB; FAM probe 3-6 nM (FA) or 20 nM (EMSA); binding buffer pH and temperature not in the material; conditions: protein: recombinant
AIM2FL [12] = target: T4, AIM2FL; test: competition fluorescence anisotropy; unlabelled competitor against 6 nM 24-bp FAM-dsDNA, 100 nM protein; 160 mM KCl (60 mM KCl for IFI16HinAB); buffer, pH and temperature not given in the available text; conditions: protein: recombinant

B1: 60-bp DNA:RNA hybrid (DNA:RNA)
DNA: TAAGACACGATGCGATAAAATCTGTTTGTAAAATTTATTAAGGGTACAAATTGCCCTAGC
RNA: GCUAGGGCAAUUUGUACCCUUAAUAAAUUUUACAAACAGAUUUUAUCGCAUCGUGUCUUA
B1 was tested, and the Kd (AIM2HIN [1]) was 800 ± 100 nM, the Kd (IFI16FL [2]) was 35 ± 15 nM and the Kd (IFI16HinAB [3]) was 60 ± 10 nM. The Kd (AIM2FL [4]) was 40 ± 10 nM, the IC50 (IFI16FL [5]) was 975 ± 48.1 nM and the IC50 (AIM2HIN [6]) was 100 ± 9 nM. For the same binder, the IC50 (AIM2HIN [7]) was 350 ± 44 nM, the IC50 (IFI16HinAB [8]) was 623 ± 106 nM and the IC50 (IFI16HinAB [9]) was 663 ± 64.6 nM. It also gave an IC50 (IFI16FL [10]) of 239 ± 31.9 nM, a Kd (AIM2FL [11]) of 40 ± 10 nM and an IC50 (AIM2FL [12]) of 19.6 ± 0.44 nM.
